First the molecules themselves.
B1: 6-space probe (two TTCGGG motifs) (dsDNA)
DNA 1: TTGAGTTCGGGTGTTCGGGCTCAA
DNA 2: TTGAGCCCGAACACCCGAACTCAA
B2: 8mut (TTCGGG to AACGCC in both half-sites) (dsDNA)
DNA 1: TTGAGAACGCCAAACAACGCCCTCAA
DNA 2: TTGAGGGCGTTGTTTGGCGTTCTCAA
B3: EIF4G3 promoter probe (dsDNA)
DNA 1: ACTTCGGACTTTTTCGGAAT
DNA 2: ATTCCGAAAAAGTCCGAAGT
B4: 10-space probe (dsDNA)
DNA 1: TTGAGTTCGGGAAAAACTTCGGGCTCAA
DNA 2: TTGAGCCCGAAGTTTTTCCCGAACTCAA
B5: 11-space probe (dsDNA)
DNA 1: TTGAGTTCGGGAAAAAACTTCGGGCTCAA
DNA 2: TTGAGCCCGAAGTTTTTTCCCGAACTCAA
B6: 6-space methylated probe (dsDNA)
DNA 1: TTGAGTTCGGGTGTTCGGGCTCAA
DNA 2: TTGAGCCCGAACACCCGAACTCAA
modifications: 5-methylcytosine on both strands at the CpG of the second half-site
B7: 9-space probe (dsDNA)
DNA 1: TTGAGTTCGGGAAAACTTCGGGCTCAA
DNA 2: TTGAGCCCGAAGTTTTCCCGAACTCAA
B8: 8-space probe (two TTCGGG motifs) (dsDNA)
DNA 1: TTGAGTTCGGGAAACTTCGGGCTCAA
DNA 2: TTGAGCCCGAAGTTTCCCGAACTCAA
B9: 6mut (TTCGGG to AACGCC in both half-sites) (dsDNA)
DNA 1: TTGAGAACGCCTGAACGCCCTCAA
DNA 2: TTGAGGGCGTTCAGGCGTTCTCAA

The data set has as its target T1, DEAF1-FLAG (UniProt O75398 1-565).
T1 sequence: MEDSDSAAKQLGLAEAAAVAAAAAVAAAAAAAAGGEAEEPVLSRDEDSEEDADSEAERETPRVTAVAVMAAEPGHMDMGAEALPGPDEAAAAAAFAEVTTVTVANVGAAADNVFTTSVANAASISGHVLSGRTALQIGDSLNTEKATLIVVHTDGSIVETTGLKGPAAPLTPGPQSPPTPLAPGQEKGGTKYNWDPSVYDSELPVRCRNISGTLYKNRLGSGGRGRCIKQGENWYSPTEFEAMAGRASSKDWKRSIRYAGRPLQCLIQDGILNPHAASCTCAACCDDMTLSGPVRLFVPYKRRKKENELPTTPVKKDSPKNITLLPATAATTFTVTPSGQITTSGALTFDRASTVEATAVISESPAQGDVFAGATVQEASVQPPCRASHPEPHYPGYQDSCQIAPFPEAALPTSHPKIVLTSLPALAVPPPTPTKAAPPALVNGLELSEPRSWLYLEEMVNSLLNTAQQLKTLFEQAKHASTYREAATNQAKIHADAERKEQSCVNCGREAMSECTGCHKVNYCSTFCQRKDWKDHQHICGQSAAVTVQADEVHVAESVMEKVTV
Description: EMSA; EMSA: 200 ng DEAF1-FLAG, 30 min at room temperature, 1x EMSA binding buffer (composition and pH not given), 1 ug dA:dT, 5% native polyacrylamide gel. Particulars: protein: recombinant; tags: FLAG; chain copies: 2; label: 32P. (In general: In EMSA bound probe runs differently from free probe, usually more slowly.)
For B1, the binding result is on record as “binds”.
On to B2, for which the binding result is listed as “no binding”.
B3: the binding result is “binds”.
Turning to B4, the binding result was “binds”.
Take B5: the binding result is listed as “binds”.
As to B6, the binding result is “no binding”.
In the case of B7, the binding result is recorded as “binds”.
Take B8: the binding result was “binds”.
As to B9, the binding result is “no binding”.

For the origin of these results see paper PMC4274154, “DEAF1 Binds Unmethylated and Variably Spaced CpG Dinucleotide Motifs”.
